Reference: paper PMC10377036, “Biological Recognition-Based Electrochemical Aptasensor for Point-of-Care Detection of cTnI”

Target: cardiac troponin I (cTnI) (UniProt P19429 2-210)
Experiment: electrochemical aptasensor (CV, SWV); 50 ng/mL cTnI in CV feasibility test; electrode blocked with MCH; sensor LOD 8.46 pg/mL, linear range 10 pg/mL-100 ng/mL (not a Kd); SWV in PBS (0.01 M PB, 150 mM NaCl, pH 7.4); 10 uL cTnI incubated on electrode 10 min at room temperature
Conditions: protein: commercial; label: methylene blue; single strand

Sequence of cardiac troponin I (cTnI) (P19429 2-210): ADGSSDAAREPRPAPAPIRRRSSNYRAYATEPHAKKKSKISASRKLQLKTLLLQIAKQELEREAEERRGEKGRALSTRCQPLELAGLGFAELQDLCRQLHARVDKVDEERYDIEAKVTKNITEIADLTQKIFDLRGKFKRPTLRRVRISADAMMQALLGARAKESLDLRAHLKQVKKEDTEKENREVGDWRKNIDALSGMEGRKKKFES

CGTGCAGTACGCCAACCTTTCTCATGCGCTGCCCCTCTTA (ssDNA, 5' thiol (SH); 3' methylene blue (MB)) [Apt (MB-Apt-SH)]
binding result: binds
